For data set [1] the following is noted: cited from earlier work. From the text:
Countless studies have highlighted the key contributions of the 20–29 domain for IAPP self-assembly, often referred to as the amyloidogenic core ([Glenner et al., 1988]). The fact that the sequence from rodent IAPP (rIAPP) includes three β-breaker prolines within the 20-29 region, and is non-amyloidogenic and poorly toxic, further highlights the critical role of this segment ([Moriarty and Raleigh, 1999]; [Tomasello et al., 2014]).

Data set [2] in a line: Kinetics of amyloid formation monitored by ThT fluorescence. As to conditions: 40 μM ThT, 20 mM Tris-HCl pH 7.4, 25°C, no agitation. It is filed as physicochemical. The method, then: Aggregation mixtures were prepared by dissolving the lyophilized peptide at a concentration of 50 μM in 20 mM Tris-HCl, pH 7.4. Assays were performed at 25°C without stirring in sealed black-wall clear-bottom 96-well nonbinding surface plates with 100 μL/well. Final peptide concentrations were 12.5 and 25 μM, and thioflavin T (ThT) concentration was fixed at 40 μM. Fluorescence was measured every 10 min (excitation: 440 nm, emission: 485 nm) and data from triplicate wells were averaged, corrected by subtracting the blank control, and plotted as ThT fluorescence vs. time. Data were normalized with maximum ThT fluorescence intensity obtained for unmodified IAPP. Data were fitted to a sigmoidal Boltzmann model: Y=Yo+(Ymax−Yo)/1+e^−(T−T50)/ K where T 50 is the time required to reach half of the maximum fluorescence intensity, k is the apparent first-order constant, and Y max and Y 0 are the maximum and initial ThT fluorescence values. Lag time corresponds to T50 - 2/k. Data of at least six assays performed with different peptide lots were averaged and expressed as the mean ± S.D. Statistical analysis was performed using Student’s t test, and statistically significant difference between IAPP and analogs was established at (*) p < 0.05; (**) p < 0.005; (***) p < 0.0005.

A short description of data set [3]: Peptide self-assembly under fully quiescent conditions (CD, ThT and ANS fluorescence, TEM, AFM). It is filed as physicochemical. As to conditions: 50 μM peptide; for Assemblies observed by TEM after 48 h incubation / Overall effect of the substitution on amyloid formation, in words: 20 mM Tris-HCl pH 7.4, quiescent; for Assemblies observed by TEM after 48 h incubation: negative stain TEM; for Overall effect of the substitution on amyloid formation, in words: CD, ThT, ANS, TEM, compared with unmodified IAPP. The protocol:
(§1) Solutions were prepared by dissolving the peptide at a concentration of 50 μM in 20 mM Tris-HCl, pH 7.4, and were incubated at room temperature without agitation in 1.5 ml Eppendorf microtubes. For IAPP12-17, the lyophilized peptide was dissolved in 20 mM acetate pH 6.5 in the presence of 3% DMSO, or HFIP, at a final concentration of 500 μM and the peptide solution was incubated at 37 °C under constant rotational agitation.
(§2) At the indicating time of incubation, peptide solutions were diluted to 25 μM in presence of 40 μM ThT, or 25 μM 8-anilino-1-naphthalenesulfonic acid (ANS). Fluorescence was measured in 10-mm pathlength microcells using a PTI QuantaMaster spectrofluorometer. For ThT, excitation was set at 440 nm, and the emission spectrum from 450 to 550 nm was recorded. For ANS, the excitation was set at 355 nm, and the emission scan was recorded from 385 to 585 nm.
(§3) After incubation, peptide solutions were diluted in water to 25 μM and incorporated into a 2-mm path length quartz cell. For IAPP12-17, the solution was diluted to 150 μM. Far-UV CD spectra were recorded from 190 to 260 nm using a Jasco J-815 CD spectropolarimeter at 25°C. The wavelength step was set at 0.5 nm with an average time of 10 s per scan at each wavelength. Spectra were background-subtracted with buffer solution. Raw data were converted to mean residue ellipticity (MRE): MRE=Mean residue weight (g/mol)X CD signal (deg)/10 X pathlength (cm) X peptide concentration (g/mL)
(§4) After incubation, peptide solutions were diluted to 10 μM, or 100 μΜ for IAPP12-17, before being applied on glow-discharged carbon films on 300-mesh copper grids. Samples were adsorbed and negatively stained with 1.5% uranyl formate for 45 s. Images were recorded using a FEI Tecnai G2 Spirit Twin microscope operating at 120 kV and equipped with a Gatan Ultrascan scan 4,000 4k × 4k CCD camera system.
After incubation, peptide solutions were diluted in 1% acetic acid to a concentration of 7.5 μΜ. […] Images were recorded using Veeco/Bruker multimode AFM instrument using ScanAsyst-air mode with a silicon tip (2–12 nm tip radius, 0.4 N/m force) on a nitride lever. Images were taken at 0.977 Hz and 512 scan/min.

Data set [4] in a line: Lipid membrane leakage (calcein-loaded LUVs). As to conditions: 25 μM peptide, 500 μM phospholipids, LUVs DOPC:DOPG 9:1, 20 mM Tris-HCl, 150 mM NaCl, pH 7.4, read every 10 min over 24 h; IAPP value reached after 10 h; at least four assays. The method, then: Large unilamellar vesicles (LUVs) were assembled from 1,2-Dioleoyl-sn-glycero-3-phosphocholine (DOPC) and 2-dioleoyl-sn-glycero-3-phospho-(1′-rac-glycerol) (DOPG) at a 9:1 M ratio (DOPC:DOPG). Lipids were solubilized in 100% chloroform, which was then evaporated. […] The lipid mixture was freeze-thawed five times before being extruded through a 100 nm membrane for 20 cycles. Nonencapsulated calcein was removed by gel filtration using a Sephadex G25 fine resin and 20 mM Tris-HCl, 150 mM NaCl, pH 7.4, as elution buffer. Final lipid concentration was determined by a colorimetric assay ([Babych et al., 2021]). Lyophilized peptides were solubilized in 20 mM Tris-HCl, 150 mM NaCl, pH 7.4, at 50 μM prior to dilution into calcein-LUVs, to reach 25 μM peptide and 500 μM phospholipids. Fluorescence was monitored in sealed black-wall, clear-bottom 96-well non-binding surface plates with 100 μL/well. […] 100% leakage (Fmax) was determined with 0.2% Triton X-100 and LUV leakage was reported using:
Membrane leakage (%) = (F−F baseline)/(F max−F baseline)
Data of at least four assays with different peptide lots were averaged and expressed as the mean ± S.D. Statistical analysis was performed using Student’s t test, and statistically significant difference was established at (*) p < 0.05; (**) p < 0.005; (***) p < 0.0005.

Data set [5] deals with INS-1E cells. Briefly: Cell viability by resazurin reduction. As to conditions: freshly dissolved peptide up to 50 μM, 24 h, at least five assays. It is filed as cell-based, Rat. The method, then: (§5) Rat INS-1E cells were cultured in treated black-wall clear-bottom 96-well plates at a density of 25,000 cell/well in RPMI-1640 medium supplemented with 10% FBS, 2 mM L-glutamine, 100 U/ml penicillin, 100 μg/ml streptomycin, 10 mM HEPES, 1 mM sodium pyruvate and 50 μM β-mercaptoethanol. After 48 h of incubation at 37°C in 5% CO2, cells were treated with 50 μL of peptide freshly dissolved in 20 mM Tris-HCl, pH 7.4. […] Cell viability (%) was calculated from the ratio of the fluorescence of the treated cells to the vehicle-treated cells. Data of at least five assays performed with different peptide lots were averaged and expressed as the mean ± S.D. Statistical analysis was performed using Student’s t test, and statistically significant difference was established at (*) p < 0.05; (**) p < 0.005; (***) p < 0.0005. For Live/Dead viability assay, cells were plated in 12-well plates at density of 250,000 cell/well for 48 h before treatment with 25 μM peptide.
On the technique in general: Alamar Blue is a resazurin reagent that responds to reducing activity.

The test system of data set [6] is INS-1E cells. Briefly: Live/Dead viability assay (calcein-AM / ethidium homodimer-1, fluorescence microscopy). It is filed as cell-based, Rat. As to conditions: 25 μM freshly solubilized peptide, 24 h, calcein-AM (green, live) and ethidium homodimer-1 (red, dead). The method, then:
as §5

A short description of data set [7]: TFE titration by far-UV CD spectroscopy (helical folding). It is filed as physicochemical. As to conditions: ellipticity at 222 nm, Tris-HCl 20 mM, TFE titration (0 to 30% TFE). The method, then:
as §3

Data set [8] in a line: Solubility and self-assembly of the IAPP12-17 fragment (CD, ThT, ANS, TEM). It is filed as physicochemical. The protocol:
as §1, §2, §3, §4

Where [9] appears, read: 20 mM Tris-HCl pH 7.4, room temperature, no agitation.

“Also recorded” adds a separate entry of the source. Bridge positions count the residues as written; N and C are the ends. Ends that are not written are not given here.

This is an account of results in publication PMC9573943, “Contribution of the 12–17 hydrophobic region of islet amyloid polypeptide in self-assembly and cytotoxicity” (Frontiers in Molecular Biosciences, 2022).

On to “ANFLV [pentapeptide corresponding to the segment 13-17 of IAPP, from a recent study]”, for which the “Fibril formation of the 13-17 pentapeptide” value in data set [1] (several days of incubation, ref Rozniakowski et al., 2020) is on record as “did not form fibrils”.

For the substance “F15A: full-length IAPP with Phe15 replaced by alanine (KCNTATCATQRLANALVHSSNNFGAILSSTNVGSNTY; disulfide 2-7; ends not checked; UniProt P10997 34-70, looked up, variant F15A)”, the “Increase of ThT fluorescence signal” value in data set [2] (12.5 μM peptide) was “no increase of ThT fluorescence signal could be detected”. The “Lag time of amyloid formation” value in data set [2] (25 μM peptide, nonbinding surface 96-well plate, read every 10 min, lag time = T50 - 2/k, mean ± S.D. of at least six assays) was 14.2 ± 2.2 h. For the same substance, in data set [3], the “Assemblies observed by TEM after 48 h incubation” value is “no fibrillar aggregates could be observed”; the “Overall effect of the substitution on amyloid formation, in words” value (“Overall effect of the substitution” below) is “delayed the appearance of ThT and ANS-positive signals, and β-sheet-rich assemblies”. Moreover, the “Assemblies observed by AFM after 96 h incubation” value in data set [3] (20 mM Tris-HCl pH 7.4, room temperature, no agitation, 96 h) is “only small aggregates”. Also, the “Assemblies observed by TEM after 168 h (7 days) incubation” value in data set [3] (setting [9]) is recorded as “amyloid fibrils could be observed”. Also, in data set [4], the “Maximum membrane leakage (calcein fluorescence, % of that with Triton X-100)” value is recorded as 55%. Moreover, in data set [5], the “Cytotoxicity compared with unmodified IAPP, in words” value is “reduced IAPP toxicity”. In addition, in data set [6], the “Cell death in Live/Dead assay, in words” value is listed as “decreased toxicity compared to unmodified IAPP”.

Take “F15G: full-length IAPP with Gly at position Phe15 (KCNTATCATQRLANGLVHSSNNFGAILSSTNVGSNTY; disulfide 2-7; ends not checked; UniProt P10997 34-70, looked up, variant F15G)”: in data set [3], the “Assemblies observed by TEM after 48 h incubation” value is “no aggregates could be detected” and the “Overall effect of the substitution” value was “delayed IAPP amyloid formation”. Further, in data set [3] (setting [9]), the “Assemblies observed by TEM after 168 h (7 days) incubation” value was “some partially dispersed amyloid fibrils”. Further, the “Cytotoxicity compared with unmodified IAPP, in words” value in data set [5] is on record as “significantly reduced IAPP cytotoxicity”. For the same substance, in data set [7], the “TFE-induced helical folding compared with unmodified IAPP, in words” value (“TFE-induced helical folding” below) is “destabilizes the propensity of IAPP to adopt an α-helix”.

For the substance “L16G: full-length IAPP with Gly at position Leu16 (KCNTATCATQRLANFGVHSSNNFGAILSSTNVGSNTY; disulfide 2-7; ends not checked; UniProt P10997 34-70, looked up, variant L16G)”, in data set [3], the “Assemblies observed by TEM after 48 h incubation” value is recorded as “Oligomer-like structures” and the “Overall effect of the substitution” value was “delayed IAPP amyloid formation”. In addition, the “Cytotoxicity compared with unmodified IAPP, in words” value in data set [5] was “significantly reduced IAPP cytotoxicity”. The “TFE-induced helical folding” value in data set [7] is “destabilizes the propensity of IAPP to adopt an α-helix”.

Consider “LANFLV [IAPP12-17, short C-amidated peptide encompassing the 12–17 segment (LANFLV) of IAPP]”, for which, in data set [8] (500 μM peptide incubated at 37 °C, diluted to 25 μM with 40 μM ThT or 25 μM ANS), the “ThT and ANS fluorescence of the aggregates” value was “ThT and ANS negative”. For the same substance, the “Assemblies observed by TEM after 7 days incubation” value in data set [8] (500 μM peptide, 20 mM acetate pH 6.5, 3% HFIP or 3% DMSO, 37 °C, constant agitation, longer fibrils with HFIP) was “laterally aligned rod-like fibrils”. In addition, the “Secondary structure over incubation time (far-UV CD)” value in data set [8] (500 μM peptide, 20 mM acetate pH 6.5, 3% HFIP, 37 °C, constant rotary agitation) is given as “mainly a random coil secondary structure after its solubilization, which evolves into β-sheet after prolonged incubation times”. In addition, the “Solubility, in words” value in data set [8] (lyophilized/monomerized peptide, needed HFIP or DMSO before dilution in 20 mM acetate buffer pH 6.5) is “poor solubility”.

For the substance “N14G: full-length IAPP with Asn14 substituted by Gly (KCNTATCATQRLAGFLVHSSNNFGAILSSTNVGSNTY; disulfide 2-7; ends not checked; UniProt P10997 34-70, looked up, variant N14G)”, the “Assemblies observed by TEM after 48 h incubation” value in data set [3] was “short, less defined, and twisted”. In addition, in data set [3] (20 mM Tris-HCl pH 7.4, room temperature, fully quiescent, up to 7 days), the “Secondary conformation / conformational transition over incubation (far-UV CD), in words” value is recorded as “delayed the random coil-to-β-sheet shift”. The “Cytotoxicity compared with unmodified IAPP, in words” value in data set [5] is on record as “significantly reduced IAPP cytotoxicity; also recorded: poorly toxic for pancreatic cells, even at 50 μM”. Also, in data set [7], the “TFE-induced helical folding” value is given as “destabilizes the propensity of IAPP to adopt an α-helix”.

For the substance “rIAPP: rodent IAPP, includes three β-breaker prolines within the 20-29 region”, the “Amyloidogenicity of rodent IAPP” value in data set [1] (ref Moriarty and Raleigh, 1999, Tomasello et al., 2014) is “non-amyloidogenic”.
